Data reported in a protein production outcome set (Wang et al. 2014).

Assay: label from the status in PepcDB records
For “MEIGLSLGLKSDEGGLKLSLSECGCHVEDITIELEGGASWFYQGMVNAFKDQIGSSVESTIAKKLTEGVSDLDSFLQSLPKEIPVDDNADLNVTFTSDPILRNSSITFEIDGLFTKGETNQVLKSFFKKSVSLVICPGNSKMLGISVDEAVFNSAAALYYNADFVQWVVDKIPEQSLLNTARWRFIIPQLYKKYPNQDMNLNISLSSPPLVKISEQYVGANVNADLVINVLDANQVIPVACISLMIRGSGALRVMGNNLGGSVSLEDFSMSLKWSNIGNLHLHLLQPIVWTVIQTVFVPYANDHLEKGFPLPIMHGFTLQNAEIICSESEITVCSDVAYLDSSQQPQWL”, the protein production was “failed”. For “MEIGRVVGNVWATRKDEKLNGQKFLIVKLLVSKDKEKEGLFVAADNAGAGIGDIVLITKGGAARQSIGNREVPIDAAIVGIVDSIDIEEDLEHHHHHH”, the protein production was “not failed”. With “MEIGVSGASGQLGKAVLAELAARGAGHRVVGISRTPERVPAPAQGRLGDYDRAETLLQAYRGLDRLLLIPSADLGPGVRGRQFTAAIDAAVRAGVKHIVMVSTAGTRELAEPALGAAYWVGEQRLVKTAPRWTILRMNYYAESFAQQAPMFLGSGILPGLGENRVAFVSRDDVAAAAAGILLGEGHAGAIYNATGPVALSGAQRAALVAELSGKPLRFAVSDEAPLRQGLAQAGLPGGFVDAVIDLEKSFVAGAFDVVTGDVARLAGREPRALRTLLADSLRPAVADA” the protein production was “failed”. For “MEIHSSAAAEVFPVCRSLLGKLPAHSHNRSVAPTVCDYYPQIMKTYNSKMTTQHSSDIRNSQNISASFVTPHDAPVTSRKYVPKFNSNNHRIKTAAAFEKGSDIYHAVRPNYPNSVIELLNLSPNSRVLDIGCGTGKLTEQIAQQTSSVYALDPSKDMLDSFRSTLDIPSWQATAEQTAVSDSRFSTLTCAQTWHWVEPLAASAELDRISTDDAQLLLVWNTLDVSVPWVHRLSRIMHSGDTLAEGFIPHVAQPWELVSVLRGKHAQELYPDQIHTLAHTRSYWLRASEKTREKLTHNLSWYLTDHLELPSTSLVEIPYRFDAFLYKKALVKTQ”, the protein production was “failed”. For “MEIIAAILVGIVALEHLFIMILEMFFMNSKVAKRAFKLPEHLEGDRNVAIMFANQGLYNGFLAVGLIWGLILGFNSIGYMVQLFFVMCVVVAALFGGFTSNKSIIVKQGLPAILALIALLIVI”, the protein production was “failed”. In the case of “MEIKDLKRLARYNPEKMAKIPVFQSERMLYDLYALLPGQAQKVHVHEGSDKVYYALEGEVVVRVGEEEALLAPGMAAFAPAGAPHGVRNESASPALLLVVTAPRP”, the protein production was “not failed”. With “MEINRQIIHPLIFVAFFVTITGSVAGAAAAPEVNMELVGHFGGTTDAVDVAGNYAYVGQGQDFLILDITNPSSPVLVSKIMTEGFVRDIKVSRNYAYVADDDNGLVIVDISNPSSPTLKGSYNIPGYTYCITVSGNYAYVADNDGLVIVDISNPSDPILKGRYAGPTGDVAVYGNYAYVADWGNGLMIVDISNPSSPVLKGSYDTAGDIYGVSISGNYAYVADGDTGLVIVDISNPSSPTLKGNYNTAGIACDVSVLGNYAYVADNDNGLVIVDISDPSSPVLKGNGSTTGYAHGIEVSGNYAYVANSNTGLVIVDISNPSSPTLKGSCDTIVRAKSIAVSGNYAYIADWDNGLVIVDISNPSSPFLKGSCDTPRSAQGVAVSGNYAYVADDDGLVIVDISNPSFPILNKSYNTGGWAQGITVSGNYAYVIDMANGIFIVDISNPSSPILEGMYDTSPIIIENYDYTGSIWSVSVSGNYAYVADEGNGLLIVDISNPSSPILKGSYDTAGLAYDVAVSGNYAYVADSKNGLAIIDISNPSSPILVGNYNTSGYAECVSISGNYAYVAVDDSLVVVDISNPSSPILKGLYAGSAGDIAVSGNYVYASEGVNGLVILKANPESAFTVADFSSNITSGYAPLSIQFNDHSQNATSWNWDFGDGYNSTNQNPIHTYSSAGTYTVNLTVINENRTASKVAKIFVLNTSSSTEENSSGSEETGGDGVILTKDTGAPTKERKITPGFEIVYWVVSLLVAFWIKGSNKK” the protein production was “failed”. In the case of “MEIRMAAAADFAEIWPLFQAVISSGDTYVFTPDTPEQDAYDYWFGAGVRCWVAVHEGRVVGMYKLIDNQRGLGNHVANASFMVDGEARGLGIGKALGLHCIKQATDLGYRAIQFNFVVSTNTLAVALWQKLGFEIIATLPGAFNHSQLGYVDAYVMHRALLPN”, the protein production was “failed”. For “MEIRNVKGTKDYLPEEQVLRSKIKRACEDTFERYGCKPLETPTLNMYELMSYKYGGGDEILKEIYTLQDQGKRDLALRYDLTIPFAKVVAMNPNIRLPFKRYEIGKVFRDGPIKQGRFREFIQCDVDIVGVESVMAEAELMSMAFELFQTLNLEVTIQYNNRKLLNGILQAINIPTELTSDVILSLDKIEKIGIDGVRKDVLERGISEEMADTICNTVLSCLQLSIADFKEAFNNPLVADGVNELQQLQQYLIALGINENTIFNPFLARGLTMYTGTVYEIFLKDGSITSSIGSGGRYDNIIGAFRGDDMSYPTVGISFGLDVIYTALSQKETISST”, the protein production was “not failed”. For “MEITKRIEELREEMVESLKKFISINSVNPAFGGPGEKEKADWLEGLLRDFGFEVDRCDVRDDRGIWRSNIVAKIPGKNREKTLWIVTHIDTVPPGDLSLWETDPFVPVVKDGKVYGRGAEDNGGSMIASIYAGKALIDLGITPEYNFGLALVADEEAGSEYGIQYLIEKGLFSPEDMFLVPDAGNEKGDFIEIAEKSILWFKVMVNGKQGHASRPQTTENALRKGAHLITEIDEALHRKYSDRDELFDEPLSTFEPTRAEKTVDNVNTVPGRFVFYFDCRVLPRYNLDEVLSIVKSILDGRGAELEVVVKQPAPEPTPPDSELVVKLSNVLRSLRGLEAKVGGIGGGTCAAFFRKKGWPAVVWSTIDETAHQPNEYRRISHMVEDAKVFALLGTER”, the protein production was “not failed”. With “MEITVIASSSIDEGIGSWDLKTGTEQLQFKPCASPAHGLTAVGEKFLASSQLSARNTSGSIFYWSWTKPQAEVKSYPVEPIKALAANNEGTYLVGGGISGDIYLWEVATGKLLKKWHGHYRSVTCLVFSGDDSLLVSGSQDGSIRVWSLIRLFDDFQRQQGNTLYEHNFNEHTMSVTDIVIDYGGCNAVIISSSEDRTCKVWSLSRGKLLKNIIFPSVINALALDPGGCVFYAGARDSKIYIGAINATSEYGTQVLGSVSEKGKAITCLAYCADGNLLISGSEDGVVCVWDPKSLRHVRTLIHAKGSRKGPVNNIQIVRKTIVANSNKTQVSWKSRGALIPPPLEKYERPVEDTMDGIVTVDPPPFSDVPVYSSFLSADLIDEQVKELQQQGSAATEMEMERLKLEYKRSLQMNEQWQKNYENLLQVVMEEEQIGGTN” the protein production was “failed”. For “MEIYLVFVDAASNSNKFWTAKVEQNQLTVQWDRVGYKAQTKVHQFTSQAQAANKYNNLVFEKKAKGYQESQPQIESCGVVDIRRAMQLLNGLRSYVTNRNFNADYINLLNQYLKIIPTPLGMQLEPYRIFTSVADVDHQRELLSSLIPATPVAVTQAKQMPESQEKIVSLRGIHKNLWRHFLEHHHHHH”, the protein production was “failed”. With “MEKCSVGGLELTEQTPALLGNMAMATSLMDIGDSFGHPACPLVSRSRNSPVEDDDDDDDVVFIESIQPPSISAPAIADQRNFIFASSKNEKPQGNYSVIPPSSRDLASQKGNISETIVIDDEEDVETNGGAEKKSSFFIEWGLPGTKNKTNDLDFSTSSLSRSKTKTGVRPFNPGRMNVAGDLFQNGEFATHHSPEMHLQRRLMSFFQ” the protein production was “not failed”. With “MEKDDATASFSPSFSTYSGDRLVEIAERVCYKEKSDAEFEFSTAATSSSGDGGLVFPVFNKNLISGDVSPEKVIPLKDLFLRERNDQQPPQQTYSSSSDEEEEDDEFDSIPSEIYCPWTPARSTADMSPSGGCRKSKSTGSSSTSTWSTKRWRLRDFLKRSKSDGKQSLKFLNPTNRDDDDESSKSKKKVSVSVTVSAHEKFYLRNKAIKEEDKRKSYLPYKQDLVGLFSNIHRYGKTFPPF” the protein production was “failed”.
